Assay results as given in publication PMC2192386.

Legend:
[1] = target: N-RAP-IB (the region of N-RAP between the LIM domain and the nebulin-like repeats); assay: ELISA
[2] = target: N-RAP-NH (the NH2-terminal half of N-RAP including the LIM domain); assay: ELISA

Kd [1]: 17 nM
Kd [2]: 8 nM
B1: muscle LIM protein (MLP), rat, histidine-tagged, full length (natural protein)
chain: MPNWGGGAKCGACDKTVYHAEEIQCNGRSFHKTCFHCMACRKALDSTTVAAHESEIYCKVCYGRKYGPKGIGFGQGAGCLSTDTGEHLGLQFQQSPKPARAATTSNPSKFSAKFGESEKCPRCGKSVYAAEKVMGGGKPWHKTCFPCAICGKSLESTNVTDKDGELYCKVCYAKNFGPTGIGFGGLTHQVEKKE
